Assay results: US9518084B2, “Epitope tag for affinity-based applications” (VIB VZW, priority 2010, dated 2016)

Tests used:
[1] = molecular target: Peptide N-YEPEA-C (SEQ ID NO: 11), residues Y136-A140 of full-length α-synuclein (Homo sapiens, UniProt P37840); assay: Isothermal titration calorimetry (ITC) of NbSyn2 binding to C-terminal peptide fragment of α-synuclein
Protocol: Calorimetric measurements were recorded using a MCS-ITC calorimeter (MicroCal, LLC, Northampton, Mass., USA). […] Both proteins were dialyzed prior to measurements in exactly the same buffer containing 10 mM phosphate, 150 mM sodium chloride at a pH of 7.4. Each injection was performed every four minutes at the desired temperature. […] The thermodynamic analysis was performed using the Microcal analysis software (Origin 7.0) with a 1:1 binding model. The temperature dependence of ΔH, allowed the calculation of ΔCp through the relationship ΔCp=δΔH/δT. The contribution of protonation to the ΔH was evaluated using a 10 mM Tris-HCL buffer 100 mM NaCl at pH 7.4.

[2] = test system: EPEA (SEQ ID NO:1)-tagged Rev protein; assay: In vivo detection of EPEA-tagged Rev in transfected HeLa cells by confocal microscopy; format: cell-based, HIV; settings: nanobody fused to mKO1 or GFP, GYQDYEPEA and EPEA tags
Description: In another set of experiments, we explored the use of the EPEA (SEQ ID NO:1) tag to detect/visualize the expression of recombinant proteins within a (living) eukaryotic cell. […] Cells that are double-transfected with Rev-[sequence] (SEQ ID NO:10) or Rev-[sequence]
The two different tags [sequence] (SEQ ID NO:2) and EPEA (SEQ ID NO:1) were C-terminal fused to Rev by PCR using Takara Ex Taq polymerase (TAKARA BIO INC).
HeLa, human epithelial cells were maintained using standard procedures until confluent in DMEM medium with 10% fetal calf serum. For transfection of plasmid DNA in HeLa, cells were harvested by a Trypsin/EDTA treatment, counted and plated onto glass bottom microwell dishes (MatTek corporation). Transfections were preformed according to manufacturer's manual: the 4×10^5 cells were seeded in a 35 mm dish. […]
Transfected HeLa cells were imaged with a laser scanning SP5 confocal microscope (Leica Microsystems) equipped with an AF 6000 microscope and an AOBS, using a HCX PL APO×63 (NA 1.2) water immersion objective magnification. GFP was monitored with the Ar laser using the 488-nm line for excitation, and emission was detected between 492 and 570 nm. mKusabira orange fluorescent protein (mKO) was imaged using the DPSS-561 nm laser for excitation, and emission was detected between 570 and 675 nm.

NbSyn2: Nanobody that specifically binds to α-synuclein, 126 amino acids, SEQ ID NO:21
Kd ([1]; 293.1 K): 240 ± 26 nM | Kd ([1]; 298.1 K): 190 ± 30 nM | Kd ([1]; 303.1 K): 460 ± 110 nM | Kd ([1]; 310.1 K): 850 ± 130 nM | Recognition of tagged Rev in double-transfected cells (colocalization in the nucleus) [2]: recognized in vivo
